5 molecules from publication PMC6239178, “The binding of Class II sRNA MgrR to two different sites on matchmaker protein Hfq enables efficient competition for Hfq and annealing to regulated mRNAs” can be followed below.

Data set [1] addresses T1, Hfq wt (Escherichia coli, UniProt P0A6X3 1-102). The experiment in a line: filter binding; 32P-A27 complex displaced by MgrR; HBB buffer (composition not in material); competition and dissociation at RT; Kd gelshift 0.1 nM 32P-MgrR, 2 h RT, 5% native gel in TBM (89 mM Tris, 89 mM borat). The conditions noted are these: protein: recombinant; pET15b); chain copies: 6; label: 32P or unlabeled; single-stranded.

The target in data set [2] is T1, Hfq wt. As to the kind of experiment: filter binding; 32P-U18 complex displaced by MgrR; HBB buffer (composition not in material); competition and dissociation at RT; Kd gelshift 0.1 nM 32P-MgrR, 2 h RT, 5% native gel in TBM (89 mM Tris, 89 mM borat). As to conditions: protein: recombinant; pET15b); chain copies: 6; label: 32P or unlabeled; single-stranded.
Data set [3] has as its target T1, Hfq wt. The experiment in a line: EMSA; ternary complex with MgrR, unaffected; HBB buffer (composition not in material); competition and dissociation at RT; Kd gelshift 0.1 nM 32P-MgrR, 2 h RT, 5% native gel in TBM (89 mM Tris, 89 mM borat). As to conditions: protein: recombinant; pET15b); chain copies: 6.
Data set [4] addresses T1, Hfq wt. As to the kind of experiment: EMSA; ternary complex with MgrR, annealing not markedly affected; HBB buffer (composition not in material); competition and dissociation at RT; Kd gelshift 0.1 nM 32P-MgrR, 2 h RT, 5% native gel in TBM (89 mM Tris, 89 mM borat). The conditions noted are these: protein: recombinant; pET15b); chain copies: 6. (In EMSA bound probe runs differently from free probe, usually more slowly.)

T1 sequence (P0A6X3 whole entry): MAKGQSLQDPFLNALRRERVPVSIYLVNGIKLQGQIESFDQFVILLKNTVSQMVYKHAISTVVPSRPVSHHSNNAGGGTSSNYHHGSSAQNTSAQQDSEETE

In the case of AAAAAAAAAAAAAAAAAAAAAAAAAAA (ssRNA) [A27], the binding result in data set [1] is reported as “binds”.

As to UUUUUUUUUUUUUUUUUU (ssRNA) [U18], the binding result in data set [2] is “binds”.

B1: ygdQ145_AU3 (structured_RNA)
RNA: GCUUCAUUUUUUUGGCAGGGCUUUUUAGAUGUUAUUUGCAUGGAUAACCGAUCCUAACGCCUGGCUUGCGCUCGGUACGCUGACGCUGCUGGAGAUCGUUCUUGGGAUCGACAAUGUGCUGGUCCUCUCUCUGGUGGUGGCAAAG
Regarding B1, in data set [3], the binding result was “binds”.

B2: eptB133_AU1_v1 (structured_RNA)
RNA: GCGCGUGUAGACCGCACUUAUCUGACUACCUCCGCACUUUUUCCCUGCCGGGCCUGAAAAGCCACUAAGCAGGGUGUUAUCACCUGUUUGUCCAGGGUUUGUUUGCAUGAGAUACAUCAAAUCGAUUACACAG
Turning to B2, in data set [4], the binding result is “binds”.

B3: eptB133_AU1_v2 (structured_RNA)
RNA: GCGCGUGUAGUUUUUUCUUUUCUGACUACCUCCGCACUUUUUCCCUGCCGGGCCUGAAAAGCCACUAAGCAGGGUGUUAUCACCUGUUUGUCCAGGGUUUGUUUGCAUGAGAUACAUCAAAUCGAUUACACAG
For the molecule B3, the binding result in data set [4] is listed as “binds”.
